Test [1] concerns the target NUP-153 RRR patch (Homo sapiens) (UniProt P49790). The conditions noted are these: cited from earlier work.
Test [2] deals with HIV-1 CA hexamer from clade A1 (isolate 92UG037.1) (HIV-1 isolate 92UG037.1 (clade A1)). Put plainly: cross-linking.
In test [3] the target is HIV-1 CA hexamer from clade A2 (isolate CDKTB48) (HIV-1 isolate CDKTB48 (clade A2)). Briefly: cross-linking.
Test [4] concerns the target HIV-1 CA hexamer from clade B (isolate NL4-3) (HIV-1 isolate NL4-3 (clade B)). Briefly: cross-linking.
Test [5] addresses HIV-1 CA hexamer from clade C (isolate 92BR025.8) (HIV-1 isolate 92BR025.8 (clade C)). Briefly: cross-linking.
In test [6] the target is HIV-1 CA hexamer from clade D (isolate 94UG114.1) (HIV-1 isolate 94UG114.1 (clade D)). Briefly: cross-linking.
For test [7], the target named is HIV-1 CA hexamer from clade A2 (isolate CDKTB48) (HIV-1 isolate CDKTB48 (clade A2)). Briefly: SPR; CA hexamer amine-coupled to a ProteOn GLH chip, peptide injected as analyte; 25 °C; 1x PBS pH 7.4, 3% DMSO, 0.005% polysorbate 20; reference surface IgG b12; 1:1 binding model; KD from a Langmuir isotherm equilibrium fit and from a global kinetic fit; triplicate. For orientation: SPR reads the build-up and loss of mass on a sensor chip optically.

The target in test [8] is HIV-1 CA hexamer from clade C (isolate 92BR025.8) (HIV-1 isolate 92BR025.8 (clade C)). The test is described as above.
Test [9] concerns the target HIV-1 CA hexamer from clade D (isolate 94UG114.1) (HIV-1 isolate 94UG114.1 (clade D)). The description is as above.

Values joined by “and” are separate entries in the source; they are usually repeats but may differ in a detail not shown here. Equal values may be shown once.

As to CA (from UniProt O93215), in test [1], the Kd (usually the free concentration of one partner at which half of the binding sites on the other are occupied at equilibrium, for simple one-to-one binding) was 0.8 µM.
For “HIV-1 CA hexamer from clade A1 (isolate 92UG037.1) (natural protein)”, in test [2], the stoichiometry N (commonly the number of molecules, sites or subunits per partner or assembly) was 6.
For the substance “HIV-1 CA hexamer from clade A2 (isolate CDKTB48) (natural protein)”, in test [3], the stoichiometry N was found to be 6.
For “HIV-1 CA hexamer from clade B (isolate NL4-3) (natural protein)”, the stoichiometry N in test [4] stood at 6.
Take “HIV-1 CA hexamer from clade C (isolate 92BR025.8) (natural protein)”: in [5], the stoichiometry N is 6.
“HIV-1 CA hexamer from clade D (isolate 94UG114.1) (natural protein)”: the stoichiometry N in test [6] is 6.
As to NUP-153 peptide (1407-…-1423), the dissociation constant (Kd) in test [7] was 443 µM and 746 µM; in test [8], 503 µM and 881 µM; in test [9], 309 µM and 368 µM.

Source of the values: article PMC9138599, “Clade-Specific Alterations within the HIV-1 Capsid Protein with Implications for Nuclear Translocation” (Biomolecules, 2022).
